For data set [1], the target named is Bacillus halodurans trp RNA-binding attenuation protein (TRAP) (Bacillus halodurans). In words: native MS; nanoflow electrospray, 100 mM ammonium acetate (pH 7.5), 10 µM L-tryptophan, protein 0.1–0.4 mg/ml.
The target is the same in data set [2]. Kind of data set: crystal structure; hanging drop vapor diffusion at 18°C, protein with 5-15 mM L-tryptophan; data at 120 K; ring oligomer built from the asymmetric unit and crystallographic symmetry.
Data set [3] deals with Bacillus stearothermophilus E71stop TRAP (Bacillus stearothermophilus). In words: native MS; nanoflow electrospray, 100 mM ammonium acetate (pH 7.5), 10 µM L-tryptophan, protein 0.1–0.4 mg/ml.
For data set [4] the target is unchanged. In words: crystal structure; hanging drop vapor diffusion at 18°C, protein with 5-15 mM L-tryptophan; data at 120 K; ring oligomer built from the asymmetric unit and crystallographic symmetry.
Data set [5] concerns the molecule itself. In words: native MS; nanoflow electrospray, 100 mM ammonium acetate (pH 7.5), 10 µM L-tryptophan, protein 0.1–0.4 mg/ml.
Data set [6] deals with the molecule itself. In words: crystal structure; hanging drop vapor diffusion at 18°C, protein with 5-15 mM L-tryptophan; data at 120 K; ring oligomer built from the asymmetric unit and crystallographic symmetry.

The term stoichiometry N denotes the number of molecules, sites or subunits per partner or assembly. Turning to “Bacillus halodurans trp RNA-binding attenuation protein (TRAP) (natural protein)”, the stoichiometry N in data set [1] and in data set [2] was 12 subunits throughout.

Turning to “Bacillus stearothermophilus E71stop TRAP (domain or fragment)”, the stoichiometry N in data set [3] and in data set [4] was 12 subunits throughout.

B1: Bacillus subtilis V11L TRAP (natural protein, UniProt P19466 1-75, looked up)
chain: MNQKHSSDFVLIKAVEDGVNVIGLTRGTDTKFHHSEKLDKGEVIIAQFTEHTSAIKVRGEALIQTAYGEMKSEKK
notes: TRAP of Bacillus subtilis with the mutation Val11 to Leu; Homo-12-mer by native mass spectrometry; could not be crystallised; also called V11L mutant; B. subtilis V11L TRAP; source: QuikChange on a pET9a plasmid containing the wild type gene; produced and purified as described previously [10]; copies: 12
B1: in data set [5], the “stoichiometry N” value came out at 12 subunits.

B2: Bacillus subtilis K71stop TRAP (domain or fragment, UniProt P19466 1-71, looked up)
chain: MNQKHSSDFVVIKAVEDGVNVIGLTRGTDTKFHHSEKLDKGEVIIAQFTEHTSAIKVRGEALIQTAYGEMK
notes: TRAP of Bacillus subtilis with the last four amino acids removed from the C-terminus (K71stop); Homo-12-mer; also called B. subtilis TRAP K71stop; mutant B. subtilis TRAP; source: QuikChange on a pET9a plasmid containing the wild type gene; produced and purified as described previously [10]; size-exclusion chromatography (Superdex 200); copies: 12
For the molecule B2, the “stoichiometry N” value in data set [6] stood at 12 subunits.

B3: Bacillus stearothermophilus TRAP, wild type (natural protein, UniProt Q9X6J6 1-74, looked up)
chain: MYTNSDFVVIKALEDGVNVIGLTRGADTRFHHSEKLDKGEVLIAQFTEHTSAIKVRGKAYIQTRHGVIESEGKK
notes: Homo-11-mer; control of the native mass spectrometry; also called B. stearothermophilus TRAP; TRAP11; source: pET9a plasmid containing the wild type gene; produced and purified as described previously [10]; copies: 11
In the case of B3, the “stoichiometry N” value in data set [5] came to 11 subunits.

The values above are taken from paper PMC3184956, “How to Change the Oligomeric State of a Circular Protein Assembly: Switch from 11-Subunit to 12-Subunit TRAP Suggests a General Mechanism” (PLoS ONE, 2011).
